Data from US20210130827A1.
Several values for one entry are separate records, joined by “and”; a condition that tells them apart may be missing. Equal values may be shown once.

Biological target: catalytically deactivated LbCpf1 (dLbCpf1)(dLbCas12a) with eight copies of GCN4 epitopes fused to the C-terminus (Lachnospiraceae bacterium)
Experiment: cell-based or functional assay

## antibody targeted toward the GCN4 epitope fused to hAPOBEC3A (scFv)
  C to T editing efficiency compared to unfused dCpf1 (NGS, HEK293T cells): < 5 fold
  C to T editing rate (NGS, HEK293T cells, not sorted for transfected cells) (% of treated cell population): 7 and 19
